Assay results from the supplement of paper PMC11246515.
± gives the standard deviation of the averaged measurements.

Experiment: total protein half-life in vivo (active degradation + dilution); higher = more stable protein
[1] = E. coli NCM3722 delta-clpP delta-lon delta-hslV, growth: N-lim chemostat, doubling time 6 h
[2] = E. coli NCM3722 delta-clpP, growth: N-lim chemostat, doubling time 6 h
[3] = E. coli NCM3722 delta-hslV, growth: N-lim chemostat, doubling time 6 h
[4] = E. coli NCM3722 delta-lon, growth: N-lim chemostat, doubling time 6 h
[5] = E. coli NCM3722 delta-smpB, growth: N-lim chemostat, doubling time 6 h
[6] = wild type E. coli NCM3722, growth: C-lim chemostat, doubling time 3 h
[7] = wild type E. coli NCM3722, growth: C-lim chemostat, doubling time 6 h
[8] = wild type E. coli NCM3722, growth: C-lim chemostat, doubling time 12 h
[9] = wild type E. coli NCM3722, growth: N-lim chemostat, doubling time 6 h
[10] = wild type E. coli NCM3722, growth: N-lim chemostat, doubling time 12 h
[11] = wild type E. coli NCM3722, growth: P-lim chemostat, doubling time 6 h
[12] = wild type E. coli NCM3722, growth: P-lim chemostat, doubling time 12 h

Sequence	total protein half-life in vivo [1] [h]	total protein half-life in vivo [2] [h]	total protein half-life in vivo [3] [h]	total protein half-life in vivo [4] [h]	total protein half-life in vivo [5] [h]	total protein half-life in vivo [6] [h]	total protein half-life in vivo [7] [h]	total protein half-life in vivo [8] [h]	total protein half-life in vivo [9] [h]	total protein half-life in vivo [10] [h]	total protein half-life in vivo [11] [h]	total protein half-life in vivo [12] [h]
MSIKLIAVDMDGTFLSDQKTYNRERFMAQYQQMKAQGIRFVVASGNQYYQLISFFPEIANEIAFVAENGGWVVSEGKDVFNGELSKDAFATVVEHLLTRPEVEIIACGKNSAYTLKKYDDAMKTVAEMYYHRLEYVDNFDNLEDIFFKFGLNLSDELIPQVQKALHEAIGDIMVSVHTGNGSIDLIIPGVHKANGLRQLQKLWGIDDSEVVVFGDGGNDIEMLRQAGFSFAMENAGSAVVAAAKYRAGSNNREGVLDVIDKVLKHEAPFDQ	4.81 ± 0.67	2.026 ± 0.013	1.78 ± 0.4	2.53 ± 0.083	1.92 ± 0.13	2.44 ± 0.25	3.96 ± 0.16	6.88 ± 0.18	2.08 ± 0.059	2.73 ± 0.66	2.7 ± 0.7	7.59 ± 3.2
MSIKTIKYFSTIIVAVVAVLAGWWLWNYYMQSPWTRDGKIRAEQVSITPQVSGRIVELNIKDNQLVNAGDLLLTIDKTPFQIAELNAQAQLAKAQSDLAKANNEANRRRHLSQNFISAEELDTANLNVKAMQASVDAAQATLKQAQWQLAQTEIRAPVSGWVTNLTTRIGDYADTGKPLFALVDSHSFYVIGYFEETKLRHIREGAPAQITLYSDNKTLQGHVSSIGRAIYDQSVESDSSLIPDVKPNVPWVRLAQRVPVRFALDKVPGDVTLVSGTTCSIAVGQ	6.427 ± 0.064	4.89 ± 0.55	6.39 ± 0.71	6.46 ± 0.5	5.645 ± 0.01	3.43 ± 0.24	6.64 ± 0.59	11.2 ± 1.9	6.093 ± 0.06	14.4 ± 1.4	6.58 ± 0.25	12.5 ± 0.34
MSILTRWLLIPPVNARLIGRYRDYRRHGASAFSATLGCFWMILAWIFIPLEHPRWQRIRAEHKNLYPHINASRPRPLDPVRYLIQTCWLLIGASRKETPKPRRRAFSGLQNIRGRYHQWMNELPERVSHKTQHLDEKKELGHLSAGARRLILGIIVTFSLILALICVTQPFNPLAQFIFLMLLWGVALIVRRMPGRFSALMLIVLSLTVSCRYIWWRYTSTLNWDDPVSLVCGLILLFAETYAWIVLVLGYFQVVWPLNRQPVPLPKDMSLWPSVDIFVPTYNEDLNVVKNTIYASLGIDWPKDKLNIWILDDGGREEFRQFAQNVGVKYIARTTHEHAKAGNINNALKYAKGEFVSIFDCDHVPTRSFLQMTMGWFLKEKQLAMMQTPHHFFSPDPFERNLGRFRKTPNEGTLFYGLVQDGNDMWDATFFCGSCAVIRRKPLDEIGGIAVETVTEDAHTSLRLHRRGYTSAYMRIPQAAGLATESLSAHIGQRIRWARGMVQIFRLDNPLTGKGLKFAQRLCYVNAMFHFLSGIPRLIFLTAPLAFLLLHAYIIYAPALMIALFVLPHMIHASLTNSKIQGKYRHSFWSEIYETVLAWYIAPPTLVALINPHKGKFNVTAKGGLVEEEYVDWVISRPYIFLVLLNLVGVAVGIWRYFYGPPTEMLTVVVSMVWVFYNLIVLGGAVAVSVESKQVRRSHRVEMTMPAAIAREDGHLFSCTVQDFSDGGLGIKINGQAQILEGQKVNLLLKRGQQEYVFPTQVARVMGNEVGLKLMPLTTQQHIDFVQCTFARADTWALWQDSYPEDKPLESLLDILKLGFRGYRHLAEFAPSSVKGIFRVLTSLVSWVVSFIPRRPERSETAQPSDQALAQQ	3.59	3.59 ± 0.068	3.23 ± 0.15	–	3.25 ± 0.049	2.31 ± 0.24	3.01 ± 0.81	4.36	–	8.41	3.59 ± 0.75	6.3 ± 0.43
MSIRIIPQDELGSSEKRTADMIPPLLFPRLKNLYNRRAERLRELAENNPLGDYLRFAALIAHAQEVVLYDHPLEMDLTARIKEASAQGKPPLDIHVLPRDKHWQKLLMALIAELKPEMSGPALAVIENLEKASTQELEDMASALFASDFSSVSSDKAPFIWAALSLYWAQMANLIPGKARAEYGEQRQYCPVCGSMPVSSMVQIGTTQGLRYLHCNLCETEWHVVRVKCSNCEQSGKLHYWSLDDEQAAIKAESCDDCDTYLKILYQEKDPKIEAVADDLASLVLDARMEQEGYARSSINPFLFPGEGE	–	4.49 ± 0.13	3.54 ± 0.26	4.36 ± 1.1	2.78 ± 0.7	1.81 ± 0.24	3.48 ± 0.15	6.07 ± 2.6	3.56 ± 0.28	4.72 ± 0.75	4.06 ± 0.14	7.84 ± 0.28
MSIVMQLQDVAESTRLGPLSGEVRAGEILHLVGPNGAGKSTLLARMAGMTSGKGSIQFAGQPLEAWSATKLALHRAYLSQQQTPPFATPVWHYLTLHQHDKTRTELLNDVAGALALDDKLGRSTNQLSGGEWQRVRLAAVVLQITPQANPAGQLLLLDEPMNSLDVAQQSALDKILSALCQQGLAIVMSSHDLNHTLRHAHRAWLLKGGKMLASGRREEVLTPPNLAQAYGMNFRRLDIEGHRMLISTI	4.65 ± 0.84	2.32 ± 0.27	3.72	2.59	2.37 ± 0.03	2.13 ± 0.1	3.49 ± 0.41	4.65	3.11 ± 0.33	–	4.37	6.509 ± 0.027
MSKAGASLATCYGPVSADVIAKAENIRLLILDVDGVLSDGLIYMGNNGEELKAFNVRDGYGIRCALTSDIEVAIITGRKAKLVEDRCATLGITHLYQGQSNKLIAFSDLLEKLAIAPENVAYVGDDLIDWPVMEKVGLSVAVADAHPLLIPRADYVTRIAGGRGAVREVCDLLLLAQGKLDEAKGQSI [P0ABZ4]	6.03 ± 0.62	5.24 ± 0.48	4.75	4.98 ± 0.53	4.36 ± 0.21	–	4.33 ± 1.4	11.2 ± 2	4.81	7.52 ± 0.99	6.58	13.2 ± 0.32
MSKCSADETPVCCCMDVGTIMDNSDCTASYSRVFANRAEAEQTLAALTEKARSVESEPCKITPTFTEESDGVRLDIDFTFACEAEMLIFQLGLR [P0AD33]	5.299 ± 0.023	–	2.32 ± 0.13	2.77 ± 0.89	2.37 ± 0.099	2.3 ± 0.11	4.14 ± 0.23	8.27 ± 4.1	2.09 ± 0.35	3.61 ± 0.46	5.25 ± 0.11	8.88 ± 0.45
MSKGTTSQDAPFGTLLGYAPGGVAIYSSDYSSLDPQEYEDDAVFRSYIDDEYMGHKWQCVEFARRFLFLNYGVVFTDVGMAWEIFSLRFLREVVNDNILPLQAFPNGSPRAPVAGALLIWDKGGEFKDTGHVAIITQLHGNKVRIAEQNVIHSPLPQGQQWTRELEMVVENGCYTLKDTFDDTTILGWMIQTEDTEYSLPQPEIAGELLKISGARLENKGQFDGKWLDEKDPLQNAYVQANGQVINQDPYHYYTITESAEQELIKATNELHLMYLHATDKVLKDDNLLALFDIPKILWPRLRLSWQRRRHHMITGRMDFCMDERGLKVYEYNADSASCHTEAGLILERWAEQGYKGNGFNPAEGLINELAGAWKHSRARPFVHIMQDKDIEENYHAQFMEQALHQAGFETRILRGLDELGWDAAGQLIDGEGRLVNCVWKTWAWETAFDQIREVSDREFAAVPIRTGHPQNEVRLIDVLLRPEVLVFEPLWTVIPGNKAILPILWSLFPHHRYLLDTDFTVNDELVKTGYAVKPIAGRCGSNIDLVSHHEEVLDKTSGKFAEQKNIYQQLWCLPKVDGKYIQVCTFTVGGNYGGTCLRGDESLVIKKESDIEPLIVVKK [P0AES0]	5 ± 0.066	4.62 ± 0.17	4.62 ± 0.18	6.12 ± 1.3	4.58 ± 0.23	3 ± 0.4	5.17 ± 0.38	10.6 ± 0.36	4.645 ± 0.024	8.42 ± 0.4	5.85 ± 0.5	11.2 ± 0.72
MSKIIATLYAVMDKRPLRALSFVMALLLAGCMFWDPSRFAAKTSELEIWHGLLLMWAVCAGVIHGVGFRPQKVLWQGIFCPLLADIVLIVGLIFFFF [P0AAV0]	–	–	–	5.39	–	–	–	–	–	–	–	–
MSKIRVLSVDDSALMRQIMTEIINSHSDMEMVATAPDPLVARDLIKKFNPDVLTLDVEMPRMDGLDFLEKLMRLRPMPVVMVSSLTGKGSEVTLRALELGAIDFVTKPQLGIREGMLAYNEMIAEKVRTAAKASLAAHKPLSAPTTLKAGPLLSSEKLIAIGASTGGTEAIRHVLQPLPLSSPALLITQHMPPGFTRSFADRLNKLCQIGVKEAEDGERVLPGHAYIAPGDRHMELSRSGANYQIKIHDGPAVNRHRPSVDVLFHSVAKQAGRNAVGVILTGMGNDGAAGMLAMRQAGAWTLAQNEASCVVFGMPREAINMGGVCEVVDLSQVSQQMLAKISAGQAIRI	4.85	–	–	–	–	2.09 ± 0.19	3.21 ± 0.2	5.6 ± 0.28	–	–	–	9.95
MSKISDLNYSQHITLADNFKQKSEVLNTWRVGMNDFARIAGGQDNRRNILSPGAFLEFLAKIFTLGYVDFSKRSNEAGRNMMAHIKSSSYSKDTNGNEKMKFYMNNPVGERADSPKVIIEISLSTITTMGTRQGHTAIIFPQPDGSTNRYEGKSFERKDESSLHLITNKVLACYQSEANKKIARLLNNNQELNNLQKLNNLQKLNNLLKLNNIQGLNNPQELNNPQNLNDSQELNNSQELNSPQELNDPQELNNSQDLNNSKVSCTVSVDSTITGLLKEPLNNALLAIRNEHLLLMPHVCDESISYLLGEKGILEEIDKLYALNDHGIDNDKVGNNEINDIKVNLSHILIDSLDDAKVNLTPVIDSILETFSKSPYINDVRILDWCFNKSMQYFDDTKKIKHACSVINHINLRSDQSKIAETLFFNLDKEPYKNSPELQGLIWNKLVVYVNEFNLSNREKTNLIQRLFDNVESIFNEVPVSILVNDIFMNDFFMKNPEMINWYFPQLLKSYEGEKIYFDNLKYDLNDNDKESNKEILKNQPDNVIKEKLNNEYKLRFRMMQTILQSRVNVLPYINEQRLNKLNPPENLRIAIEHFGWKNRPITA	5.05	4.13 ± 0.42	4.07	3.78	–	1.27	3.95 ± 2.7	8.85	–	–	2.71	2.84 ± 1.1
MSKKIVLALGGNALGDDLAGQMKAVKITSQAIVDLIAQGHEVIVTHGNGPQVGMINQAFEAAAKTEAHSPMLPMSVCVALSQGYIGYDLQNALREELLSRGINKPVATLVTQVEVDANDPAFLNPTKPIGSFFTEQEAEQLTKQGYTLKEDAGRGYRRVVASPKPVDIIEKETVKALVDAGQVVITVGGGGIPVIREGNHLRGASAVIDKDWASARLAEMIDADMLIILTAVEKVAINFGKENEQWLDRLSLSDAERFIEEGHFAKGSMLPKVEAAASFARSRAGREALITVLSKAKEGIEGKTGTVICQ	3.53	–	> 8	–	2.48	2.84 ± 0.39	3.92	6.22 ± 1.5	2.66	–	3.03	5.27 ± 1.5
MSKKLIALCACPMGLAHTFMAAQALEEAAVEAGYEVKIETQGADGIQNRLTAQDIAEATIIIHSVAVTPEDNERFESRDVYEITLQDAIKNAAGIIKEIEEMIASEQQ	4.54 ± 0.89	–	–	–	–	2.27 ± 0.1	4.02 ± 0.38	5.83 ± 0.31	–	–	–	–
MSKLDLNALNELPKVDRILALAETNAELEKLDAEGRVAWALDNLPGEYVLSSSFGIQAAVSLHLVNQIRPDIPVILTDTGYLFPETYRFIDELTDKLKLNLKVYRATESAAWQEARYGKLWEQGVEGIEKYNDINKVEPMNRALKELNAQTWFAGLRREQSGSRANLPVLAIQRGVFKVLPIIDWDNRTIYQYLQKHGLKYHPLWDEGYLSVGDTHTTRKWEPGMAEEETRFFGLKRECGLHEG	4.38 ± 0.8	4.21 ± 0.56	1.29 ± 0.27	1.64 ± 0.023	1.37 ± 0.087	2.11 ± 0.095	2.91 ± 0.58	4.05 ± 0.29	1.47 ± 0.077	1.721 ± 0.012	3.28 ± 0.37	6.15 ± 0.27
MSKLDTFIQHAVNAVPVSGTSLISSLYGDSLSHRGGEIWLGSLAALLEGLGFGERFVRTALFRLNKEGWLDVSRIGRRSFYSLSDKGLRLTRRAESKIYRAEQPAWDGKWLLLLSEGLDKSTLADVKKQLIWQGFGALAPSLMASPSQKLADVQTLLHEAGVADNVICFEAQIPLALSRAALRARVEECWHLTEQNAMYETFIQSFRPLVPLLKEAADELTPERAFHIQLLLIHFYRRVVLKDPLLPEELLPAHWAGHTARQLCINIYQRVAPAALAFVSEKGETSVGELPAPGSLYFQRFGGLNIEQEALCQFIR	–	–	4.03 ± 0.075	4.2 ± 0.044	4.07 ± 0.076	2.77 ± 0.17	5.07 ± 0.31	8.39 ± 0.13	4.07 ± 0.22	6.84 ± 0.13	4.82 ± 0.088	8.96 ± 0.47
